Source: publication PMC4802596, “Using the β-glucosidase catalyzed reaction product glucose to improve the ionic liquid tolerance of β-glucosidases” (Biotechnology for Biofuels, 2016)

Experiments:
[1] = test system: O=[N+]([O-])c1ccc(O[C@@H]2O[C@H](CO)[C@@H](O)[C@H](O)[C@H]2O)cc1; experiment: purified protein; settings: 50 mM potassium phosphate pH 7.2, 52 °C, 5 min, text b17 prints a different Km than Tables 1-3
[2] = test system: O=[N+]([O-])c1ccc(O[C@@H]2O[C@H](CO)[C@H](O)[C@H](O)[C@H]2O)cc1; experiment: purified protein; settings: 50 mM potassium phosphate pH 7.2, 52 °C, 5 min

H0HC94 (Agrobacterium tumefaciens 5A) gave a Km [1] of 3.09 ± 0.40 mM, a kcat [1] of 278 ± 4 s⁻¹ and a kcat/Km [1] of 89900 M⁻¹ s⁻¹. For the same substance, the Km [2] was 12.93 ± 2.00 mM, the kcat [2] was 215 ± 7 s⁻¹ and the kcat/Km [2] was 16600 M⁻¹ s⁻¹.
